Assay results from patent publication US20220332804A1 (CSL INNOVATION, published 2022).
Substitutions are numbered along the chain they refer to.

Key:
Assay in all cases: SPR, mAb captured, C2 mutant analyte;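 note: Anti-C2 mAbs captured on goat anti-human IgG Biacore CM5 chips, alanine or serine C2 surface mutants flowed over at 37 °C, double-referenced sensorgrams fitted to a 1:1 binding model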
human C2 G677A = molecular target: T1, human C2 G677A (human, UniProt P06681 21-752)
T1 sequence: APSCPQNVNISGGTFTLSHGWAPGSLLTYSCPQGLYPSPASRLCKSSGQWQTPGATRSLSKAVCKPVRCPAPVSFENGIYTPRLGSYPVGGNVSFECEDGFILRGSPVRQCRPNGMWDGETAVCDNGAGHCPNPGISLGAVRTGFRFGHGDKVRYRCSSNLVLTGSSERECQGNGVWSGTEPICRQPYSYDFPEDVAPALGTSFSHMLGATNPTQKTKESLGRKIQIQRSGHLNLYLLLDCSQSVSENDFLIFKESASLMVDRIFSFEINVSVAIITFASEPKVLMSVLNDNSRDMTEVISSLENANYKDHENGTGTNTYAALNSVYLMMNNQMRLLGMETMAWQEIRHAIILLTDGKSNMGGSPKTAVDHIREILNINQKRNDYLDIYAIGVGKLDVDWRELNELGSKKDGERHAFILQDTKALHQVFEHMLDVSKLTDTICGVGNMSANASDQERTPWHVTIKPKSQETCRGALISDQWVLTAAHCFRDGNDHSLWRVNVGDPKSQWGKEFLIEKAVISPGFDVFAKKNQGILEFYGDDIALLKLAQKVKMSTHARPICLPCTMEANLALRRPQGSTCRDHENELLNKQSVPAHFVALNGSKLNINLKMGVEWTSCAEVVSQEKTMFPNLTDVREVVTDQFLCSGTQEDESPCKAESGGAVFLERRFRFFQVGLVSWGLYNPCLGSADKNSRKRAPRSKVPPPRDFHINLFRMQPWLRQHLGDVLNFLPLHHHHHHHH

human C2 T317A = molecular target: T2, human C2 T317A (human, UniProt P06681 21-752)
T2 sequence: T1 sequence with T297A, A657G

human C2 A444S = molecular target: T3, human C2 A444S (human, UniProt P06681 21-752)
T3 sequence: T1 sequence with A424S, A657G

human C2 H446A = molecular target: T4, human C2 H446A (human, UniProt P06681 21-752)
T4 sequence: T1 sequence with H426A, A657G

B1: RF16-214 (antibody, V domains shown)
VH: EVQLLESGGGLVQPGGSLRLSCAASGFTFSWYQMMWVRQAPGKGLEWVSRIYPSGGGTAYADSVKGRFTISRDNSKNTLYLQMNSLRAEDTAVYYCARDAGYGDNWGQGTLVTVSS
VL: QSALTQPPSVSVSPGQTASITCSGDKLGEKYASWYQQKAGQSPVMVIYQDRKRPSGIPERFSGSNSGNTATLTISGTQAMDEADYYCQAWDTRAVVFGGGTKLTVLG
Kd (human C2 G677A): 28.1 nM
Kd (human C2 T317A): 27.9 nM
Kd (human C2 A444S): 20.7 nM
Kd (human C2 H446A): 153 nM
